Experimental data taken from the supplement of paper PMC9112550, “Optimization of the antimicrobial peptide Bac7 by deep mutational scanning” (BMC Biology, 2022).

Test system: Escherichia coli TOP10
Experiment: shrunken log2 fold change of peptide-encoding DNA abundance (4.5 h post-induction vs induction); higher = less antimicrobial activity (less host growth inhibition)
Details: time post-induction: 4.5 h; library: site-saturation at positions 5, 18, 19, 20
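Also: peptides expressed intracellularly from a pBAD plasmid library in pooled LB shake-flask culture, induced with 0.3% L-arabinose, DNA abundance read by NGS, three biological replicates, DESeq2 with apeglm shrinkage.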

| Sequence | shrunken log2 fold change |
| --- | --- |
| RRIRHRPPRLPRPRPRPKLAPRP | -0.0576 |
| RRIRHRPPRLPRPRPRPKNIPRP | -0.477 |
| RRIRHRPPRLPRPRPRPKPGPRP | 0.21 |
| RRIRHRPPRLPRPRPRPKQEPRP | 0.0169 |
| RRIRHRPPRLPRPRPRPKRDPRP | 0.158 |
| RRIRHRPPRLPRPRPRPKRQPRP | -0.0409 |
| RRIRHRPPRLPRPRPRPKRTPRP | 0.00166 |
| RRIRHRPPRLPRPRPRPKSSPRP | -0.0395 |
| RRIRHRPPRLPRPRPRPKTAPRP | 0.0497 |
| RRIRHRPPRLPRPRPRPKTPPRP | 0.155 |
| RRIRHRPPRLPRPRPRPKWAPRP | 0.279 |
| RRIRHRPPRLPRPRPRPKYEPRP | -0.255 |
| RRIRHRPPRLPRPRPRPKYIPRP | -0.796 |
| RRIRHRPPRLPRPRPRPKYWPRP | -0.2 |
| RRIRHRPPRLPRPRPRPLARPRP | 0.113 |
| RRIRHRPPRLPRPRPRPLATPRP | -0.0931 |
| RRIRHRPPRLPRPRPRPLCFPRP | -0.243 |
| RRIRHRPPRLPRPRPRPLDDPRP | -0.172 |
| RRIRHRPPRLPRPRPRPLGAPRP | -0.0242 |
| RRIRHRPPRLPRPRPRPLGFPRP | 0.114 |
| RRIRHRPPRLPRPRPRPLHQPRP | -0.00684 |
| RRIRHRPPRLPRPRPRPLHWPRP | 0.0266 |
| RRIRHRPPRLPRPRPRPLHYPRP | -0.284 |
| RRIRHRPPRLPRPRPRPLLWPRP | 0.0832 |
| RRIRHRPPRLPRPRPRPLMIPRP | -0.498 |

| Sequence | shrunken log2 fold change |
| --- | --- |
| RRIRHRPPRLPRPRPRPLMSPRP | -0.196 |
| RRIRHRPPRLPRPRPRPLMVPRP | -0.474 |
| RRIRHRPPRLPRPRPRPLPDPRP | -0.299 |
| RRIRHRPPRLPRPRPRPLPPPRP | 0.196 |
| RRIRHRPPRLPRPRPRPLREPRP | 0.819 |
| RRIRHRPPRLPRPRPRPLRQPRP | -0.0125 |
| RRIRHRPPRLPRPRPRPLSLPRP | -0.492 |
| RRIRHRPPRLPRPRPRPLSVPRP | -0.136 |
| RRIRHRPPRLPRPRPRPLTFPRP | 0.01 |
| RRIRHRPPRLPRPRPRPLTLPRP | -0.193 |
| RRIRHRPPRLPRPRPRPLVEPRP | -0.0289 |
| RRIRHRPPRLPRPRPRPLYFPRP | -0.816 |
| RRIRHRPPRLPRPRPRPMAHPRP | 0.0179 |
| RRIRHRPPRLPRPRPRPMAKPRP | -0.124 |
| RRIRHRPPRLPRPRPRPMFEPRP | -0.239 |
| RRIRHRPPRLPRPRPRPMFNPRP | -0.608 |
| RRIRHRPPRLPRPRPRPMGNPRP | -0.0499 |
| RRIRHRPPRLPRPRPRPMHGPRP | -0.00804 |
| RRIRHRPPRLPRPRPRPMIEPRP | 0.0253 |
| RRIRHRPPRLPRPRPRPMINPRP | -0.305 |
| RRIRHRPPRLPRPRPRPMIVPRP | 0.0837 |
| RRIRHRPPRLPRPRPRPMKLPRP | -0.254 |
| RRIRHRPPRLPRPRPRPMLNPRP | -0.114 |
| RRIRHRPPRLPRPRPRPMLQPRP | -0.0377 |
| RRIRHRPPRLPRPRPRPMNAPRP | -0.282 |

| Sequence | shrunken log2 fold change |
| --- | --- |
| RRIRHRPPRLPRPRPRPMNGPRP | -0.287 |
| RRIRHRPPRLPRPRPRPMQNPRP | -0.0144 |
| RRIRHRPPRLPRPRPRPMQYPRP | -0.104 |
| RRIRHRPPRLPRPRPRPMRFPRP | -0.00752 |
| RRIRHRPPRLPRPRPRPMSHPRP | -0.0479 |
| RRIRHRPPRLPRPRPRPMTLPRP | -0.0135 |
| RRIRHRPPRLPRPRPRPMTSPRP | -0.491 |
| RRIRHRPPRLPRPRPRPMTTPRP | -0.125 |
| RRIRHRPPRLPRPRPRPMVVPRP | 0.00198 |
| RRIRHRPPRLPRPRPRPMWTPRP | -0.126 |
| RRIRHRPPRLPRPRPRPMYPPRP | -0.304 |
| RRIRHRPPRLPRPRPRPNADPRP | 0.031 |
| RRIRHRPPRLPRPRPRPNDAPRP | -0.2 |
| RRIRHRPPRLPRPRPRPNFAPRP | 0.303 |
| RRIRHRPPRLPRPRPRPNFVPRP | -0.0788 |
| RRIRHRPPRLPRPRPRPNGGPRP | -0.147 |
| RRIRHRPPRLPRPRPRPNIWPRP | 0.0229 |
| RRIRHRPPRLPRPRPRPNKKPRP | -0.0825 |
| RRIRHRPPRLPRPRPRPNLGPRP | -0.00355 |
| RRIRHRPPRLPRPRPRPNMKPRP | -0.855 |
| RRIRHRPPRLPRPRPRPNPFPRP | -0.67 |
| RRIRHRPPRLPRPRPRPNSEPRP | -0.795 |
| RRIRHRPPRLPRPRPRPNSKPRP | -0.737 |
| RRIRHRPPRLPRPRPRPNTKPRP | -0.0741 |
| RRIRHRPPRLPRPRPRPNVTPRP | -0.0118 |
